Assays:
[1] = test system: PEG2-Tregitope peptide (KKKK-Peg2-Val-Cit-Tregitope-Nle)
[2] = test system: PEG12-Tregitope peptide (Peg12-Val-Cit-Tregitope-Nle)

Substance: Recombinant human Cathepsin B (catalog 953-CY of R&D Systems)
- cleavage of the Val-Cit site, evaluated by mass spec [1]: the PEG2 peptide did not have successful cleavage
- cleavage of the Val-Cit site, evaluated by mass spec [2]: For the PEG12 product, successful cleavage was demonstrated

Reference: patent publication US20240316101
